From US20220048967A1 (published 2022)
Numbered stars: 1 amine (or outer) side, 2 acyl side, 3 side chain; on linkers, the order of the positions; unused ones are H or OH. Square brackets hold non-standard residues; d marks the D form. Side chains are listed from the residue outwards. Ends that are not written are not given here. * marks the point of attachment. C20 diacid = O=C(O)CCCCCCCCCCCCCCCCCCC(=O)*; C18 diacid = O=C(O)CCCCCCCCCCCCCCCCC(=O)*; γGlu = O=C(O)[C@H](CCC(=O)[*:2])N[*:1]; αMeF = C[C@](N)(Cc1ccccc1)C(=O)O; αMeK = C[C@](N)(CCCCN)C(=O)O; Dab = NCC[C@H](N)C(=O)O; AEEA = NCCOCCOCC(=O)O; Aib = CC(C)(N)C(=O)O

T1: human GIP receptor (human, UniProt P48546 22-466)
T1 sequence (looked up): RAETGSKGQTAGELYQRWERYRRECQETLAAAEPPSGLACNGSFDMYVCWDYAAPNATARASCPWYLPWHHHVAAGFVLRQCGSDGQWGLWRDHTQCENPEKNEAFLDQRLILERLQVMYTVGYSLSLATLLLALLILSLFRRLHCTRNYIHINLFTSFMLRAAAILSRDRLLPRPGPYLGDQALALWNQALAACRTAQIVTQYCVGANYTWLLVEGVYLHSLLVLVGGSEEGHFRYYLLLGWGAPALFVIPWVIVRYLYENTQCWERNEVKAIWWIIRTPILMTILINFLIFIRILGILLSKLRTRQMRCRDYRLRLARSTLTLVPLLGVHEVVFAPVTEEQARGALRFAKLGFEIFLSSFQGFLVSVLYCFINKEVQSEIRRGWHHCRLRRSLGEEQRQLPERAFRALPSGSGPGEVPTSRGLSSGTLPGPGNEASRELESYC


How the values were obtained:
Assay in all cases: cell-based or functional assay
human GLP-1 receptor [1] = target: human GLP-1 receptor (human, UniProt P43220 24-463)
human GIP receptor = target: T1, human GIP receptor
human GLP-1 receptor [2] = target: human GLP-1 receptor (human, UniProt P43220 24-463); remark: listed apart in the source

Row | Binder | hGLP1R GTPgS % Top (human GLP-1 receptor [1]) | hGLP1R GTPgS Rel EC50 (human GLP-1 receptor [1]) | hGIPR cAMP EC50 ratio (human GIP receptor) | hGIPR cAMP Rel EC50 (human GIP receptor) | hGLP1R cAMP EC50 ratio (human GLP-1 receptor [2]) | hGLP1R cAMP Rel EC50 (human GLP-1 receptor [2])
1 | Y[Aib]EGTFTSDYSILLDKK([AEEA-AEEA-γGlu-C18 diacid])AQ[Aib]AFVEYLIEGGPSSG-NH2 (N-terminus assumed; SMILES CC[C@H](C)[C@H](NC(=O)[C@H](CC(C)C)NC(=O)[C@H](Cc1ccc(O)cc1)NC(=O)[C@H](CCC(=O)O)NC(=O)[C@@H](NC(=O)[C@H](Cc1ccccc1)NC(=O)[C@H](C)NC(=O)C(C)(C)NC(=O)[C@H](CCC(N)=O)NC(=O)[C@H](C)NC(=O)[C@H](CCCCNC(=O)COCCOCCNC(=O)COCCOCCNC(=O)CC[C@H](NC(=O)CCCCCCCCCCCCCCCCC(=O)O)C(=O)O)NC(=O)[C@H](CCCCN)NC(=O)[C@H](CC(=O)O)NC(=O)[C@H](CC(C)C)NC(=O)[C@H](CC(C)C)NC(=O)[C@@H](NC(=O)[C@H](CO)NC(=O)[C@H](Cc1ccc(O)cc1)NC(=O)[C@H](CC(=O)O)NC(=O)[C@H](CO)NC(=O)[C@@H](NC(=O)[C@H](Cc1ccccc1)NC(=O)[C@@H](NC(=O)CNC(=O)[C@H](CCC(=O)O)NC(=O)C(C)(C)NC(=O)[C@@H](N)Cc1ccc(O)cc1)[C@@H](C)O)[C@@H](C)O)[C@@H](C)CC)C(C)C)C(=O)N[C@@H](CCC(=O)O)C(=O)NCC(=O)NCC(=O)N1CCC[C@H]1C(=O)N[C@@H](CO)C(=O)N[C@@H](CO)C(=O)NCC(N)=O) [Example 298] | 57.3% | 1.03 nM | – | – | – | –
2 | H[Aib]EGTFTSDYSI[αMeF]LDKK([Dab-AEEA-Dab-AEEA-C20 diacid])AQ[αMeK]AFIQYLLA[Aib]GPSSGAPPPS-NH2 [Example 19] | – | – | 0.436 | 0.386 nM | 0.532 | 0.104 nM
3 | Y[Aib]EGTFTSDYSILLD[Aib]IAQK([AEEA-AEEA-γGlu-C20 diacid])AFIEYLIEGGPSSGAPPPS-NH2 (N-terminus assumed; SMILES CC[C@H](C)[C@H](NC(=O)[C@H](CC(C)C)NC(=O)[C@H](Cc1ccc(O)cc1)NC(=O)[C@H](CCC(=O)O)NC(=O)[C@@H](NC(=O)[C@H](Cc1ccccc1)NC(=O)[C@H](C)NC(=O)[C@H](CCCCNC(=O)COCCOCCNC(=O)COCCOCCNC(=O)CC[C@H](NC(=O)CCCCCCCCCCCCCCCCCCC(=O)O)C(=O)O)NC(=O)[C@H](CCC(N)=O)NC(=O)[C@H](C)NC(=O)[C@@H](NC(=O)C(C)(C)NC(=O)[C@H](CC(=O)O)NC(=O)[C@H](CC(C)C)NC(=O)[C@H](CC(C)C)NC(=O)[C@@H](NC(=O)[C@H](CO)NC(=O)[C@H](Cc1ccc(O)cc1)NC(=O)[C@H](CC(=O)O)NC(=O)[C@H](CO)NC(=O)[C@@H](NC(=O)[C@H](Cc1ccccc1)NC(=O)[C@@H](NC(=O)CNC(=O)[C@H](CCC(=O)O)NC(=O)C(C)(C)NC(=O)[C@@H](N)Cc1ccc(O)cc1)[C@@H](C)O)[C@@H](C)O)[C@@H](C)CC)[C@@H](C)CC)[C@@H](C)CC)C(=O)N[C@@H](CCC(=O)O)C(=O)NCC(=O)NCC(=O)N1CCC[C@H]1C(=O)N[C@@H](CO)C(=O)N[C@@H](CO)C(=O)NCC(=O)N[C@@H](C)C(=O)N1CCC[C@H]1C(=O)N1CCC[C@H]1C(=O)N1CCC[C@H]1C(=O)N[C@@H](CO)C(N)=O) [Example 13] | – | – | 0.18 | 1.05 nM | 0.0133 | 5.39 nM
4 | H[Aib]EGTFTSDYSILLDKK([AEEA-AEEA-γGlu-C20 diacid])AQ[Aib]AFIEYLIE[Aib]GPSSGAPPPS-NH2 (N-terminus assumed; SMILES CC[C@H](C)[C@H](NC(=O)[C@H](Cc1ccccc1)NC(=O)[C@H](C)NC(=O)C(C)(C)NC(=O)[C@H](CCC(N)=O)NC(=O)[C@H](C)NC(=O)[C@H](CCCCNC(=O)COCCOCCNC(=O)COCCOCCNC(=O)CC[C@H](NC(=O)CCCCCCCCCCCCCCCCCCC(=O)O)C(=O)O)NC(=O)[C@H](CCCCN)NC(=O)[C@H](CC(=O)O)NC(=O)[C@H](CC(C)C)NC(=O)[C@H](CC(C)C)NC(=O)[C@@H](NC(=O)[C@H](CO)NC(=O)[C@H](Cc1ccc(O)cc1)NC(=O)[C@H](CC(=O)O)NC(=O)[C@H](CO)NC(=O)[C@@H](NC(=O)[C@H](Cc1ccccc1)NC(=O)[C@@H](NC(=O)CNC(=O)[C@H](CCC(=O)O)NC(=O)C(C)(C)NC(=O)[C@@H](N)Cc1c[nH]cn1)[C@@H](C)O)[C@@H](C)O)[C@@H](C)CC)C(=O)N[C@@H](CCC(=O)O)C(=O)N[C@@H](Cc1ccc(O)cc1)C(=O)N[C@@H](CC(C)C)C(=O)N[C@H](C(=O)N[C@@H](CCC(=O)O)C(=O)NC(C)(C)C(=O)NCC(=O)N1CCC[C@H]1C(=O)N[C@@H](CO)C(=O)N[C@@H](CO)C(=O)NCC(=O)N[C@@H](C)C(=O)N1CCC[C@H]1C(=O)N1CCC[C@H]1C(=O)N1CCC[C@H]1C(=O)N[C@@H](CO)C(N)=O)[C@@H](C)CC) [Example 16] | – | – | 0.157 | 0.975 nM | 1.43 | 0.0437 nM
5 | H[Aib]EGTFTSDYSI[αMeF]LDKK([Dab-AEEA-Dab-AEEA-C20 diacid])AQ[αMeK]AFIQYLLA[Aib]GPSSGAPKPS-NH2 [Example 18] | – | – | 0.275 | 0.61 nM | 0.589 | 0.0945 nM
6 | Y[Aib]EGTFTSDYSILLDKIAQK([AEEA-AEEA-γGlu-C20 diacid])AFIEYLIEGGPSSGAPPPS-NH2 (N-terminus assumed; SMILES CC[C@H](C)[C@H](NC(=O)[C@H](CCCCN)NC(=O)[C@H](CC(=O)O)NC(=O)[C@H](CC(C)C)NC(=O)[C@H](CC(C)C)NC(=O)[C@@H](NC(=O)[C@H](CO)NC(=O)[C@H](Cc1ccc(O)cc1)NC(=O)[C@H](CC(=O)O)NC(=O)[C@H](CO)NC(=O)[C@@H](NC(=O)[C@H](Cc1ccccc1)NC(=O)[C@@H](NC(=O)CNC(=O)[C@H](CCC(=O)O)NC(=O)C(C)(C)NC(=O)[C@@H](N)Cc1ccc(O)cc1)[C@@H](C)O)[C@@H](C)O)[C@@H](C)CC)C(=O)N[C@@H](C)C(=O)N[C@@H](CCC(N)=O)C(=O)N[C@@H](CCCCNC(=O)COCCOCCNC(=O)COCCOCCNC(=O)CC[C@H](NC(=O)CCCCCCCCCCCCCCCCCCC(=O)O)C(=O)O)C(=O)N[C@@H](C)C(=O)N[C@@H](Cc1ccccc1)C(=O)N[C@H](C(=O)N[C@@H](CCC(=O)O)C(=O)N[C@@H](Cc1ccc(O)cc1)C(=O)N[C@@H](CC(C)C)C(=O)N[C@H](C(=O)N[C@@H](CCC(=O)O)C(=O)NCC(=O)NCC(=O)N1CCC[C@H]1C(=O)N[C@@H](CO)C(=O)N[C@@H](CO)C(=O)NCC(=O)N[C@@H](C)C(=O)N1CCC[C@H]1C(=O)N1CCC[C@H]1C(=O)N1CCC[C@H]1C(=O)N[C@@H](CO)C(N)=O)[C@@H](C)CC)[C@@H](C)CC) [Example 12] | – | – | 0.659 | 0.3 nM | 0.0603 | 1.15 nM
7 | YXEGTXTSDYSIXLDXKAQXEFIXYLIEGGPSSGAPPPS (Aib2, αMeF(2F)6, αMeL13, Orn16, K17 conjugated to (2-[2-(2-Amino-ethoxy)-ethoxy]-acetyl)2-(γ-Glu)-CO-(CH2)18-CO2H, Aib20, D-Glu24, C-terminal amide (NH2)) [Example 3] | 95.4% | 0.421 nM | – | – | – | –
8 | YXEGTXTSDVSIXLDXKAQXEFIXXLIEGGPSSGAPPPS (Aib2, αMeF(2F)6, αMeL13, Orn16, K17 conjugated to (2-[2-(2-Amino-ethoxy)-ethoxy]-acetyl)2-(γ-Glu)-CO-(CH2)16-CO2H, Aib20, D-Glu24, αMeY25, C-terminal amide (NH2)) [Example 5] | 91.3% | 0.196 nM | – | – | – | –
9 | H[Aib]EGTFTSDYSILLDKKAQ[Aib]AFIEYLLE[Aib]GPSSGAPPPS-NH2 (not fully specified (residue 17)) [Example 15] | – | – | 0.273 | 0.613 nM | 1.65 | 0.0336 nM
10 | Y[Aib]EGTFTSDYSILLDKIAQKEFIQYLLE[Aib]GPSSGAPPPS-NH2 (not fully specified (residue 20)) [Example 14] | – | – | 0.545 | 0.284 nM | 0.0306 | 1.87 nM
11 | H[Aib]EGTFTSDYSILLDKIAQK([AEEA-AEEA-γGlu-C20 diacid])AFIEYLLE[Aib]GPSSG-NH2 (N-terminus assumed; SMILES CC[C@H](C)[C@H](NC(=O)[C@H](CCCCN)NC(=O)[C@H](CC(=O)O)NC(=O)[C@H](CC(C)C)NC(=O)[C@H](CC(C)C)NC(=O)[C@@H](NC(=O)[C@H](CO)NC(=O)[C@H](Cc1ccc(O)cc1)NC(=O)[C@H](CC(=O)O)NC(=O)[C@H](CO)NC(=O)[C@@H](NC(=O)[C@H](Cc1ccccc1)NC(=O)[C@@H](NC(=O)CNC(=O)[C@H](CCC(=O)O)NC(=O)C(C)(C)NC(=O)[C@@H](N)Cc1c[nH]cn1)[C@@H](C)O)[C@@H](C)O)[C@@H](C)CC)C(=O)N[C@@H](C)C(=O)N[C@@H](CCC(N)=O)C(=O)N[C@@H](CCCCNC(=O)COCCOCCNC(=O)COCCOCCNC(=O)CC[C@H](NC(=O)CCCCCCCCCCCCCCCCCCC(=O)O)C(=O)O)C(=O)N[C@@H](C)C(=O)N[C@@H](Cc1ccccc1)C(=O)N[C@H](C(=O)N[C@@H](CCC(=O)O)C(=O)N[C@@H](Cc1ccc(O)cc1)C(=O)N[C@@H](CC(C)C)C(=O)N[C@@H](CC(C)C)C(=O)N[C@@H](CCC(=O)O)C(=O)NC(C)(C)C(=O)NCC(=O)N1CCC[C@H]1C(=O)N[C@@H](CO)C(=O)N[C@@H](CO)C(=O)NCC(N)=O)[C@@H](C)CC) [Example 17] | – | – | 0.0257 | 5.81 nM | 0.398 | 0.152 nM
